Experimental data as given in paper PMC2765501.

Target: C22-pT peptide (HIV-1 gp41 MPER residues 662-683 with a C-terminal GCN4-pT isoleucine-zipper motif) (HIV-1)
Experiment: AUC

For “C22-pT peptide (HIV-1 gp41 MPER residues 662-683 with a C-terminal GCN4-pT isoleucine-zipper motif)”, the stoichiometry N was 3.
